From the Human Domainome abundance scans (Beltran et al. 2025)
± gives the uncertainty stated by the source.

B1: Proto-oncogene vav, residues 782 to 842; numbered along this chain, P15498 (parent)
chain: KYFGTAKARYDFCARDRSELSLKEGDIIKILNKKGQQGWWRGEIYGRVGWFPANYVEEDYS

Variants of: B1
Experiment: abundance fitness (aPCA) (normalised: wild type 0, dead -1); higher = more abundant; growth selection in yeast, the domain comes from the species named
Conditions: Homo sapiens

Abundance fitness, by site and new letter:
I30: N -0.77 ± 0.33 | Y -0.74 ± 0.25 | P -0.814 ± 0.26 | R -0.634 ± 0.093 | V 0.006 ± 0.075 | S -0.662 ± 0.12 | M -0.555 ± 0.15 | W -0.871 ± 0.16 | Q -0.833 ± 0.29
E43: A -0.197 ± 0.086 | M -0.389 ± 0.12 | D -0.559 ± 0.17 | N -0.36 ± 0.17 | K -0.155 ± 0.14 | G -0.702 ± 0.12 | R -0.31 ± 0.076 | H -0.993 ± 0.42 | L -0.525 ± 0.086 | C -0.343 ± 0.1 | W -0.782 ± 0.16 | S -0.126 ± 0.07 | T -0.367 ± 0.084 | F -0.825 ± 0.47 | V -0.411 ± 0.073 | Y -0.682 ± 0.16 | Q -0.019 ± 0.12
W40: L -0.306 ± 0.077 | C -0.833 ± 0.23 | Y -0.182 ± 0.14 | F -0.303 ± 0.21 | P -0.876 ± 0.46 | A -1.13 ± 0.26 | Q -0.876 ± 0.46 | K -0.362 ± 0.35 | D -0.747 ± 0.23 | V -0.648 ± 0.083 | I -0.385 ± 0.24 | M -0.428 ± 0.14 | E -0.924 ± 0.28 | G -0.707 ± 0.084 | S -0.785 ± 0.14 | R -0.948 ± 0.19
W39: A -0.614 ± 0.15 | S -0.599 ± 0.08 | R -0.241 ± 0.049 | Q -0.317 ± 0.079 | T -0.385 ± 0.078 | H -0.513 ± 0.2 | I -0.408 ± 0.098 | M -0.028 ± 0.07 | F -0.354 ± 0.097 | G -0.978 ± 0.17 | N -0.674 ± 0.15 | L -0.268 ± 0.055 | E -0.795 ± 0.27 | P -0.807 ± 0.12
Y45: Q 0.169 ± 0.066 | F 0.085 ± 0.17 | D 0.147 ± 0.079 | K 0.115 ± 0.065 | P -0.211 ± 0.072 | W -0.101 ± 0.068 | M 0.1 ± 0.06 | G 0.125 ± 0.044 | A 0.106 ± 0.056 | N 0.081 ± 0.074 | H 0.135 ± 0.15 | L 0.036 ± 0.043 | E 0.103 ± 0.065 | S 0.164 ± 0.047 | V -0.074 ± 0.052 | T -0.021 ± 0.053
K34: I -0.424 ± 0.17 | F -0.363 ± 0.31 | P -0.165 ± 0.079 | C -0.117 ± 0.11 | A -0.013 ± 0.077 | S -0.05 ± 0.085 | G -0.051 ± 0.07 | V -0.072 ± 0.075 | R 0.019 ± 0.043 | D -0.054 ± 0.17 | T -0.158 ± 0.094 | H -0.03 ± 0.11 | N 0.068 ± 0.15 | Q 0.031 ± 0.072 | Y -0.216 ± 0.16 | E 0.068 ± 0.1 | M -0.22 ± 0.1 | L -0.268 ± 0.065
G35: A -0.346 ± 0.086 | E -0.165 ± 0.072 | M -0.324 ± 0.15 | K -0.204 ± 0.11 | W -0.6 ± 0.12 | C -0.165 ± 0.093 | D -0.155 ± 0.08 | Q -0.304 ± 0.13 | T -0.16 ± 0.11 | L -0.469 ± 0.075 | S -0.104 ± 0.07 | V -0.412 ± 0.076 | R -0.287 ± 0.064 | I -0.334 ± 0.15 | Y -0.643 ± 0.14 | P -0.23 ± 0.12 | N -0.327 ± 0.24 | H -0.428 ± 0.13
W50: D -0.493 ± 0.15 | E -0.603 ± 0.17 | I -0.739 ± 0.23 | K -0.559 ± 0.15 | F -0.678 ± 0.24 | N -0.329 ± 0.14 | A -0.649 ± 0.17 | G -0.699 ± 0.11 | L -0.341 ± 0.069 | M -0.387 ± 0.12
K33: V -0.41 ± 0.068 | M -0.804 ± 0.23 | S -0.576 ± 0.092 | W -0.693 ± 0.11 | G -0.734 ± 0.11 | A -0.711 ± 0.12 | D -0.743 ± 0.2 | R -0.089 ± 0.051 | H -0.68 ± 0.35 | I -0.44 ± 0.15 | N -0.681 ± 0.2 | L -0.929 ± 0.16 | P -0.41 ± 0.12 | C -0.732 ± 0.17 | E -0.46 ± 0.15 | Y -0.475 ± 0.12 | F -0.593 ± 0.14 | T -0.377 ± 0.11 | Q -0.478 ± 0.19
L31: K -0.392 ± 0.13 | A -0.816 ± 0.16 | S -0.618 ± 0.11 | R -0.461 ± 0.094 | W -0.251 ± 0.11 | I -0.004 ± 0.1 | H -0.285 ± 0.16 | G -0.773 ± 0.13 | V -0.285 ± 0.092 | C -0.412 ± 0.23 | Y -0.188 ± 0.17 | N -0.649 ± 0.18 | D -0.415 ± 0.24 | P -0.988 ± 0.42 | M -0.366 ± 0.11 | T -0.133 ± 0.085 | F -0.46 ± 0.22 | E -0.644 ± 0.32 | Q -0.525 ± 0.25
Q37: G 0.029 ± 0.11 | E 0.033 ± 0.12 | A -0.044 ± 0.075 | H 0.037 ± 0.11 | Y 0.048 ± 0.11 | D -0.008 ± 0.12 | M -0.105 ± 0.12 | R -0.048 ± 0.063 | N -0.086 ± 0.22 | I -0.292 ± 0.14 | L -0.106 ± 0.056 | K -0.022 ± 0.22 | W -0.189 ± 0.12 | P 0.039 ± 0.088 | F -0.186 ± 0.094 | V -0.024 ± 0.069 | S 0.02 ± 0.071 | C -0.02 ± 0.097 | T -0.135 ± 0.11
G42: P -0.916 ± 0.26 | D -0.385 ± 0.21 | M -0.748 ± 0.15 | T -0.825 ± 0.16 | L -0.788 ± 0.11 | A -0.523 ± 0.11 | S -0.787 ± 0.12 | V -0.837 ± 0.14 | Q -0.963 ± 0.35 | I -0.832 ± 0.33 | R -0.398 ± 0.081 | Y -0.618 ± 0.26 | E -0.809 ± 0.26 | F -1.02 ± 0.4
G38: R -0.539 ± 0.11 | M -0.795 ± 0.23 | K -0.248 ± 0.18 | I -0.911 ± 0.25 | E -0.438 ± 0.17 | A -0.619 ± 0.12 | P -0.944 ± 0.25 | W -0.928 ± 0.31 | Q -0.186 ± 0.14 | C -0.725 ± 0.23 | L -0.55 ± 0.11 | T -0.69 ± 0.14 | F -0.82 ± 0.29 | D -0.265 ± 0.11 | V -0.51 ± 0.1 | N -0.309 ± 0.16 | H -0.418 ± 0.18
Q36: K 0.132 ± 0.1 | I -0.084 ± 0.11 | W -0.156 ± 0.094 | Y -0.219 ± 0.11 | G -0.192 ± 0.066 | C -0.258 ± 0.13 | E -0.005 ± 0.077 | F -0.166 ± 0.15 | H 0.016 ± 0.15 | P 0.074 ± 0.092 | S -0.195 ± 0.084 | T -0.076 ± 0.088 | M 0.055 ± 0.085 | A -0.07 ± 0.094 | N -0.248 ± 0.22 | D -0.073 ± 0.18 | L -0.045 ± 0.064
I44: P -0.556 ± 0.14 | Q -0.484 ± 0.16 | K -0.239 ± 0.16 | M -0.292 ± 0.1 | C 0.042 ± 0.087 | T -0.027 ± 0.095 | D -0.486 ± 0.16 | V 0.044 ± 0.062 | H -0.025 ± 0.21 | F -0.257 ± 0.24 | W -0.556 ± 0.12 | R -0.145 ± 0.062 | A 0.062 ± 0.069 | G -0.619 ± 0.096 | Y -0.425 ± 0.17 | N 0.085 ± 0.17 | L 0.089 ± 0.075
R41: T -0.633 ± 0.13 | K 0.008 ± 0.08 | S -0.359 ± 0.084 | H -0.113 ± 0.12 | L 0.031 ± 0.049 | P -0.588 ± 0.14 | C -0.002 ± 0.098 | M 0.024 ± 0.078 | E 0.018 ± 0.085 | W -0.123 ± 0.12 | I -0.463 ± 0.12 | N -0.375 ± 0.15 | Q 0.129 ± 0.073 | G -0.691 ± 0.11 | F 0.081 ± 0.091 | A -0.364 ± 0.07
G46: L -0.67 ± 0.07 | V -0.748 ± 0.073 | W -0.853 ± 0.1 | P -0.387 ± 0.061 | Y -1.01 ± 0.29 | I -0.766 ± 0.16 | R -0.671 ± 0.061 | Q -0.291 ± 0.082 | F -0.942 ± 0.14 | D -0.19 ± 0.098 | H -0.672 ± 0.16 | T -0.542 ± 0.069 | M -0.896 ± 0.12 | C -0.784 ± 0.17 | K -0.516 ± 0.12 | N -0.15 ± 0.098 | E -0.311 ± 0.063 | A -0.731 ± 0.09 | S -0.343 ± 0.067
N32: D 0.162 ± 0.098 | R -0.255 ± 0.063 | Q 0.009 ± 0.12 | G -0.075 ± 0.07 | S 0.082 ± 0.062 | A -0.031 ± 0.075 | F -0.118 ± 0.092 | V -0.223 ± 0.078 | Y -0.168 ± 0.17 | K -0.221 ± 0.12 | M -0.242 ± 0.11 | I -0.363 ± 0.22 | E 0.123 ± 0.11 | H -0.02 ± 0.15 | T -0.131 ± 0.1 | L -0.292 ± 0.066
G49: F -0.87 ± 0.26 | L -1.01 ± 0.29 | T -0.506 ± 0.19 | D -0.956 ± 0.33 | C -0.83 ± 0.49 | N -0.956 ± 0.41 | Q -0.838 ± 0.29 | R -0.998 ± 0.27 | A -0.433 ± 0.2 | V -0.902 ± 0.32 | K -0.92 ± 0.36 | M -0.907 ± 0.45 | P -0.776 ± 0.2 | S -0.618 ± 0.14
V48: A -0.156 ± 0.045 | E -0.07 ± 0.05 | Y -0.177 ± 0.12 | D -0.499 ± 0.11 | H -0.405 ± 0.14 | T 0.071 ± 0.069 | C -0.194 ± 0.074 | W -0.491 ± 0.076 | P -0.733 ± 0.12 | L -0.347 ± 0.086 | K -0.071 ± 0.1 | M -0.312 ± 0.1 | S -0.062 ± 0.059
R47: G -0.628 ± 0.081 | T -0.313 ± 0.12 | F -0.788 ± 0.16 | P -0.86 ± 0.12 | M -0.393 ± 0.16 | V -0.367 ± 0.049 | Y -0.503 ± 0.089 | L -0.493 ± 0.043 | A -0.268 ± 0.051 | W -0.841 ± 0.11 | N -0.276 ± 0.14 | H -0.226 ± 0.087 | D -0.3 ± 0.09 | K -0.051 ± 0.16 | S -0.297 ± 0.053 | Q -0.065 ± 0.069
